Test results as given in the supplement of paper PMC10567573.

B1: KRT15 (parent)
chain: SNFHINVEESVDGQVVSSHKREI

Variants of: B1
Test: protein stability index of a GFP-peptide fusion (GPS, HEK-293T) (PSI 1-6); higher = more stable
Conditions: c terminus: native
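Also: lentivirally expressed fusions sorted by FACS into six bins by GFP to DsRed ratio, PSI derived from sequencing read proportions per bin multiplied by bin number.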

Variant	protein stability index
SNFHINVEESVDGQLVSSHKREI [V15L]	1.78
SNFHINVEESVDGQCVSSHKREI [V15C]	1.48
SNFHINVEESVDGQQVSSHKREI [V15Q]	2.78
SNFHINVEESVDGQSVSSHKREI [V15S]	3.12
SNFHINVEESVDGQYVSSHKREI [V15Y]	2.12
SNFHINVEESVDGQDVSSHKREI [V15D]	2.82
SNFHINVEESVDGQAVSSHKREI [V15A]	1.71
SNFHINVEESVDGQPVSSHKREI [V15P]	2.84
SNFHINVEESVDGQIVSSHKREI [V15I]	2.11
SNFHINVEESVDGQGVSSHKREI [V15G]	2.67
SNFHINVEESVDGQVVSSHKRII [E22I]	4.12
SNFHINVEESVDGQVVSSHKRRI [E22R]	2.87
SNFHINVEESVDGQVVSSHKRAI [E22A]	4.63
SNFHINVEESVDGQVVSSHKRYI [E22Y]	4.1
SNFHINVEESVDGQVVSSHKRWI [E22W]	3.94
SNFHINVEESVDGQVVSSHKRHI [E22H]	4.64
SNFHINVEESVDGQVVSSHKRFI [E22F]	4.19
SNFHINVEESVDGQVVSSHKRDI [E22D]	4.97
SNFHINVEESVDGQVVSSHKRNI [E22N]	4.82
SNDHINVEESVDGQVVSSHKREI [F3D]	3.01
SNRHINVEESVDGQVVSSHKREI [F3R]	2.87
SNQHINVEESVDGQVVSSHKREI [F3Q]	2.5
SNKHINVEESVDGQVVSSHKREI [F3K]	2.7
SNTHINVEESVDGQVVSSHKREI [F3T]	2.69
SNYHINVEESVDGQVVSSHKREI [F3Y]	1.61

Variant	protein stability index
SNPHINVEESVDGQVVSSHKREI [F3P]	2.15
SNEHINVEESVDGQVVSSHKREI [F3E]	2.33
SNHHINVEESVDGQVVSSHKREI [F3H]	3.1
SNFHINVEESRDGQVVSSHKREI [V11R]	1.46
SNFHINVEESEDGQVVSSHKREI [V11E]	2.36
SNFHINVEESWDGQVVSSHKREI [V11W]	1.86
SNFHINVEESGDGQVVSSHKREI [V11G]	1.7
SNFHINVEESADGQVVSSHKREI [V11A]	1.94
SNFHINVEESHDGQVVSSHKREI [V11H]	1.83
SNFHINVEESFDGQVVSSHKREI [V11F]	3.87
SNFHINVEESKDGQVVSSHKREI [V11K]	1.53
SNFHINVEESIDGQVVSSHKREI [V11I]	2.17
SNFHINVEESVDGQVVSSSKREI [H19S]	4.55
SNFHINVEESVDGQVVSSEKREI [H19E]	4.9
SNFHINVEESVDGQVVSSDKREI [H19D]	5
SNFHINVEESVDGQVVSSAKREI [H19A]	2.75
SNFHINVEESVDGQVVSSNKREI [H19N]	4.44
SNFHINVEESVDGQVVSSIKREI [H19I]	2.03
SNFHINVEESVDGQVVSSVKREI [H19V]	3.51
SNFHINVEESVDGQVVSSHTREI [K20T]	3.08
SNFHINVEESVDGQVVSSHAREI [K20A]	3.58
SNFHINVEESVDGQVVSSHPREI [K20P]	1.94
SNFHINVEESVDGQVVSSHRREI [K20R]	3.06
SHFHINVEESVDGQVVSSHKREI [N2H]	2.79
SGFHINVEESVDGQVVSSHKREI [N2G]	1.87

Variant	protein stability index
SDFHINVEESVDGQVVSSHKREI [N2D]	1.78
STFHINVEESVDGQVVSSHKREI [N2T]	1.9
SKFHINVEESVDGQVVSSHKREI [N2K]	1.36
SYFHINVEESVDGQVVSSHKREI [N2Y]	1.68
SPFHINVEESVDGQVVSSHKREI [N2P]	3.02
SWFHINVEESVDGQVVSSHKREI [N2W]	2.14
SAFHINVEESVDGQVVSSHKREI [N2A]	1.57
SEFHINVEESVDGQVVSSHKREI [N2E]	1.69
SNFHINVEESVDGQVGSSHKREI [V16G]	2.82
SNFHINVEESVDGQVKSSHKREI [V16K]	2.2
SNFHINVEESVDGQVLSSHKREI [V16L]	2.37
SNFHINVEESVDGQVHSSHKREI [V16H]	1.2
SNFHINVEESVDGQVYSSHKREI [V16Y]	2
SNFHINVEESVDGQVTSSHKREI [V16T]	2.99
SNFHINVEESVDGQVDSSHKREI [V16D]	2.86
SNFHINHEESVDGQVVSSHKREI [V7H]	2.11
SNFHINCEESVDGQVVSSHKREI [V7C]	4
SNFHINAEESVDGQVVSSHKREI [V7A]	2.76
SNFHINYEESVDGQVVSSHKREI [V7Y]	1.36
SNFHINSEESVDGQVVSSHKREI [V7S]	2.12
SNFHINDEESVDGQVVSSHKREI [V7D]	2.01
SNFHINGEESVDGQVVSSHKREI [V7G]	3.08
SNFHINQEESVDGQVVSSHKREI [V7Q]	2.88
SNFHINVWESVDGQVVSSHKREI [E8W]	2.41
SNFHINVNESVDGQVVSSHKREI [E8N]	1.9

Variant	protein stability index
SNFHINVPESVDGQVVSSHKREI [E8P]	2.47
SNFHINVVESVDGQVVSSHKREI [E8V]	1.32
SNFHINVLESVDGQVVSSHKREI [E8L]	2.02
SNFHINVDESVDGQVVSSHKREI [E8D]	1.8
SNFHINVTESVDGQVVSSHKREI [E8T]	1.34
SNFHINVRESVDGQVVSSHKREI [E8R]	2.02
SNFHINVYESVDGQVVSSHKREI [E8Y]	2.88
SNFHINVGESVDGQVVSSHKREI [E8G]	1.42
SNFHINVKESVDGQVVSSHKREI [E8K]	2.28
SNFHINVEESVDGQVVSSHKRER [I23R]	3.09
SNFHINVEESVDGQVVSSHKRES [I23S]	3.79
SNFHINVEESVDGQVVSSHKREW [I23W]	2.45
SNFHINVEESVDGQVVSSHKREE [I23E]	2.44
SNFHINVEESVDGQVVSSHKREF [I23F]	4.74
SNFHINVEESVDGQVVSSHKREV [I23V]	4.83
SNFHINVEESVDGQVVSSHKREM [I23M]	2.52
SNFHINVEESVDGQVVSSHKRET [I23T]	4.32
SNFRINVEESVDGQVVSSHKREI [H4R]	1.6
SNFQINVEESVDGQVVSSHKREI [H4Q]	1.52
SNFTINVEESVDGQVVSSHKREI [H4T]	1.43
SNFEINVEESVDGQVVSSHKREI [H4E]	3.18
SNFFINVEESVDGQVVSSHKREI [H4F]	1.49
